Assay results: US20210230264A1 (JIANGSU QYUNS THERAPEUTICS, published 2021)

B1: anti-human interleukin 17A monoclonal antibody QX002N (antibody, human IgG1, kappa, V domains shown)
VH: EVQLQESGPGLVKPSETLSLTCTVSGIDLSLFYMSWIRQPPGKGLEWIGTIHEVASSYYASWAKGRVTISKDTSKNQFSLKLSSVTAADTAVYYCARETYSSRYPYPNIWGQGTLVTVSS
VL: DIQMTQSPSSVSASVGDRVTITCQASQNIGGSLAWYQQKPGKAPKLLIYGASSLASGVPSRFSGSGSGTDFTLTISSLQPEDFATYYCQSYNTISTYGLAFGGGTKVEIKR
notes: Claim 27 joins 7/8 with 10/11; Expressed in ExpiCHO-S cells and purified on Protein A; also called 37-5; humanized clone 37 #
B2: Ixekizumab (IXE) (antibody, V domains shown)
VH: QVQLVQSGAEVKKPGSSVKVSCKASGYSFTDYHIHWVRQAPGQGLEWMGVINPMYGTTDYNQRFKGRVTITADESTSTAYMELSSLRSEDTAVYYCARYDYFTGTGVYWGQGTLVTVSS
VL: DIVMTQTPLSLSVTPGQPASISCRSSRSLVHSRGNTYLHWYLQKPGQSPQLLIYKVSNRFIGVPDRFSGSGSGTDFTLKISRVEAEDVGVYYCSQSTHLPFTFGQGTKLEIKR

Columns and labels:
[1] = biological target: T1, human Interleukin-17A (hIL-17A) (human, UniProt Q16552 24-154); assay: SPR, Biacore T200, 25 C, antibody captured on Protein A CM5 chip, hIL-17A in flow, 1:1 model, mean of two runs
T1 construct: also called hIL-17A standard
T1 sequence (Q16552 24-154): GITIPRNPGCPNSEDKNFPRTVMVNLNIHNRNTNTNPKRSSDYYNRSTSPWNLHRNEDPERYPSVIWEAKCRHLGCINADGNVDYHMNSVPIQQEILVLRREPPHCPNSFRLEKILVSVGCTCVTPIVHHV
Procedure: The Protein A was chemically coupled to the CM5 chip, and an appropriate amount of antibody was immobilized by the capture method, so that the Rmax was less than 50 RU, and the capture flow rate was 10 μl/min. The antigen was gradually diluted, and the flow rate of the instrument was switched to 30 μl/min. The diluted antigen was flowed through the reference channel and the channel of immobilized antibody in sequence from low to high concentration, and the running buffer was flowed through as a negative control. After each binding and dissociation was completed, the chip was regenerated with glycine, pH1.5. Fitting was performed with the build-in software in the instrument according to a 1:1 binding model. The association rate constant kₐ, the dissociation rate constant kd, and the equilibrium dissociation constant KD values of the antibody were calculated.

[2] = biological target: T1, human Interleukin-17A (hIL-17A); assay: cell-based or functional assay

Binder | Kd [1] [nM] | IC50 (read off the curve) [2] [ng/mL] | koff [1] [s⁻¹] | kon [1] [M⁻¹ s⁻¹]
B1 | 0.00707 | ~20 |  | 
B2 | 0.0154 |  | 2.58e-05 | 1.7e+06
